Assay results from patent publication US20210292393A1 (published 2021).
Where a chain is given by its changes, count along the chain named.

B1: antibody 329 (antibody, V domains shown)
VH: EVQLVESGGGLVQPGGSLRLSCAASGFTFSSYWMHWVRQAPGKGLVWVSRINSDGSSTSYADSVKGRFTISRDNAKNTLYLQMNSLRAEDTAVYYCAREGIVATITLDYWGQGTLVTVSS
VL: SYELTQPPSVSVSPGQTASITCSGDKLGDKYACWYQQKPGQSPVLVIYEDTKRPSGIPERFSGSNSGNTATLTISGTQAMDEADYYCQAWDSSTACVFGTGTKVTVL
B2: antibody 558 (antibody, V domains shown)
VH: QVQLVESGGGVVQPGRSLRLSCAASGFTFSSYAMHWVRQAPGKGLEWVAVISYDGSNKYYADSVKGRFTISRDNSKNTLYLQMNSLRAEDTAVYYCARGQGGGYYYGMDVWGQGTTVTVSS
VL: QSALTQPASVSGSPGQSITISCTGTSSDVGGYNYVSWYQQHPGKAPKLMIYDVSNRPSGVSNRFSGSKSGNTASLTISGLQAEDEADYYCSSYTSSSTLYVFGTGTKVTVL
B3: antibody 562 (antibody, V domains shown)
VH: B2 VH with G99A, Q100S, G101S, Y105Q, Y106G, G107P, M108F, V110P, T116L
VL: QSALTQPASVSGSPGQSITISCTGTSSDVGGYNYVSWYQQHPGKAPKLMIYDVSNRPSGVSNRFSGSKSGNTASLTISGLQAEDEADYYCSSYTSSSTLLYVFGTGTKVTVLG
B4: antibody 323 (antibody, V domains shown)
VH: QVQLVQSGAEVKKPGASVKVSCKVSGYTLTELSMHWVRQAPGKGLEWMGGFDPEDGETIYAQKFQGRVTMTEDTSTDTAYMELSSLRSEDTAVYYCATSTIFAPGGWFDPWGQGTLVTVSS
VL: QSALTQPASVSGSPGQSITISCTGTSSDVGSYNLVSWYQQHPGKAPKLMIYEVSKRPSGVSNRFSGSKSGNTASLTISGLQAEDEADYYCCSYAGSTHYVFGTGTKVTVL
B5: antibody 342 (antibody, V domains shown)
VH: EVQLVQSGAEVKKPGATVKISCKVSGYTFTDYYMHWVQQAPGKGLEWMGLVDPEDGETIYAEKFQGRVTITADTSTDTAYMELSSLRSEDTAVYYCATGGVSVWFREFPASYSGSYLGYWGQGTLVTVSS
VL: not shown
B6: antibody 324 (antibody, V domains shown)
VH: QVQLQESGPGLVKPSGTLSLTCAVSGGSISSSNWWSWVRQPPGKGLEWIGEIYHSGSTNYNPSLKSRVTISVDNSKNQFSLKLSSVTAADTAVYYCARESVAAAGISYYYYGMDVWGQGTTVTVSS
VL: EIVLTQSPGTLSLSPGERATLSCRASQSVSGRYLAWYQQKPGQAPRLLIYGASSRATGIPDRFSGSGSGTDFTLTISRLEPEDFAVYYCQHYGSSPGTFGQGTRLEIK
B7: antibody 328 (antibody, V domains shown)
VH: B6 VH
VL: DIQMTQSPSSLSASVGDRVTITCRASQGIRNDLGWYQQKPGKAPKRLIYAASSLQSGVPSRFSGSGSGTEFTLTVSGLQPEDFATYYCLQYNSSPLTFGGGTKVEIK
B8: antibody 333 (antibody, V domains shown)
VH: QVHLVESGGGVVLPGRSLRLSCSASQFIFSNYDMHWVRQSPGMGLEWVAGISSDGSDKYYIDSVRGRFTISRDNAKNTLFLQMNSLTTEDTAVYSCAKGGGKFGQYWGRGTLVTVSS
VL: AIQMTQSPSSLSASVGDRVTITCRASQVIRNDLAWFQQKPGEAPNLLVYSASNLQSGVPSRFSGSGSGTDFTLTISSLQPEDFATYYCLQDYSYPYTFGQGTKLDMK
B9: antibody 337 (antibody, V domains shown)
VH: QVQLVESGGGVVQPGRSLRLSCAASGFTFSSYGMHWVRQAPGKGLEWVAIIWYDGSNKYYADSVKGRFTISRDNSKNTLYLQMNSLRAEDTAVYYCAKDTGGYCSGGSCYPESYFDYWGQGTLVTVSS
VL: SYVLTQPPSVSVAPGKTARITCGGNNIGSKSVHWYQQKPGQAPVLVIYYDSDRPSGIPERFSGSNSGNTATLTINRVEAGDEADYYCQVWDGSSDHLYVFGTGTKVTVL
B10: antibody 559 (antibody, V domains shown)
VH: QVQLQESGPGLVKLSETLSLTCTVSGYSISSGYYWGWIRQPPGKGLEWIGSIYHSGSTYYNPSLKSRVTISVDTSKNQFSLKLSSVTAADTAVYYCAREETLGSSWYESYIDYWGQGTLVTVSS
VL: B9 VL with N75S, G92S, L97P, Y98R, T102G, V106L
B11: antibody 331 (antibody, V domains shown)
V domain 1: QITLKESGPTLVKPTETLTLTCSFSGFSLTKTGEAAGWIRQAPGRALEWVTVIFWDDDKRYSPSLQNRISVTKDTSKNQVVLRMTNVARFDTGTYFCWAMGGPGKEYFGQGTLVAVSS
V domain 2: QSVLTQPPSVSGAPGQRVTISCTGTSSSIGPYSDVHWYQHVSGKAPRLLIFGNSNRPSGVPDRFSGSKSGTSASLVIAGLQAEDEADYYCQSYDSSLGEIYVFGTGTTVTVL
B12: antibody 339 (antibody, V domains shown)
V domain 1: B11 V domain 1 with K31R, N67S, I69L, S70T, R83T, G93A, L113Q
V domain 2: B11 V domain 2
B13: antibody 332 (antibody, V domains shown)
VH: QVTLRESGPALVKPTQTLTLTCTFSGFSLSTSGMCVSWIRQPPGKALEWLALIDWDDDKYYSTSLKTRLTISKDTSKNQVVLTMTNMDPVDTATYYCARIHDDILTGYHYVDYWGQGTLVTVSS
VL: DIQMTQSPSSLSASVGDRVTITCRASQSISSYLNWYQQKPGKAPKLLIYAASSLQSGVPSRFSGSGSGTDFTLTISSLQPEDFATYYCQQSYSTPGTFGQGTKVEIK
B14: antibody 585 (antibody, V domains shown)
VH: QVQLVESGGGVVQPGRSLRLSCAASGFTFATYAMHWVRQAPGKGLEWVALISHDGSNKHYADSVKGRFTISRDNSKKTLYLQMNSLRAEGTAIYYCARESLEAAAPPFDYWGQGTLVTVSS
VL: SYELTQPPSVSVSPGQTATIICSGDKLGEKYASWYQQKPGQSPALVIYQDRKRPSGIPERFSGSNSGNTATLTISGTQAMDEADYYCQAWDSSNSVVFGGGTKLTVP
B15: antibody 340 (antibody, V domains shown)
VH: QVQLVQSGAEVKKPGASVKVSCKASGYTFTSYDINWVRQATGQGLEWMGWMNPNSGNTGYAQKFQGRVTMTRNTSISTAYMELSSLRSEDTAVYYCARGRYCTGGVCWGDWYFDLWGRGTLVTVSS
VL: QSVLTQPPSVSGAPGQRVTISCTGSSSNIGAGYDVHWYQQLPGTAPKFLIYGNSNRPSGVPDRFSGSKSGTSASLAITGLQAEDEADYYCQSYDSSLSGPVFGGGTKLTVL
B16: antibody 320 (antibody, V domains shown)
VH: QVQLVQSGAEVKKPGASVKVSCKASGYTFTSYGISWVRQAPGQGLEWMGWISAYNGNTNYAQKLQGRVTMTTDTSTRTAYMELRSLRSDDTAVYYCARVGCYYDSSGYSCAENFQHWGQGTLVTVSS
VL: QSVLTQPPSVSGAPGQRVTISCTGSSSNIGAGYDVHWYQQLPGTAPKLLIYGNSNRPSGVPDRFSGSKSGTSASLAITGLQAEDEADYYCQSYDSSLSALFGGGTKLTVL

What was measured:
SARS-CoV spike protein = SARS-CoV spike protein (SARS-CoV, UniProt P59594 14-1190)
SARS-CoV-2 spike protein = molecular target: T1, SARS-CoV-2 spike protein (SARS-CoV-2, UniProt P0DTC2 14-1208); experiment: HT-SPR, Carterra LSA; mAb coupled to chip, antigen injected; 1:1 fit
T1 construct: also called SARS-CoV-2 S protein; antigen of interest

| Binder | median fluorescence intensity, fold over isotype control (SARS-CoV spike protein) | Kd (SARS-CoV-2 spike protein) | koff (SARS-CoV-2 spike protein) | kon (SARS-CoV-2 spike protein) |
| --- | --- | --- | --- | --- |
| B1 | 2.46 fold over isotype | – | – | – |
| B2 | – | 0.237 nM | 8.94e-05 s⁻¹ | 378000 M⁻¹ s⁻¹ |
| B3 | – | 0.0211 nM | 1.16e-05 s⁻¹ | 548000 M⁻¹ s⁻¹ |
| B4 | 1.29 fold over isotype | – | – | – |
| B5 | 1.16 fold over isotype | – | – | – |
| B6 | 1.14 fold over isotype | – | – | – |
| B7 | 1.22 fold over isotype | – | – | – |
| B8 | 1.21 fold over isotype | – | – | – |
| B9 | 439 fold over isotype | – | – | – |
| B10 | – | 32.2 nM | 0.000631 s⁻¹ | 19600 M⁻¹ s⁻¹ |
| B11 | 1.34 fold over isotype | – | – | – |
| B12 | 1.27 fold over isotype | – | – | – |
| B13 | 0.99 fold over isotype | – | – | – |
| B14 | – | 0.248 nM | 4.59e-05 s⁻¹ | 185000 M⁻¹ s⁻¹ |
| B15 | 1.26 fold over isotype | – | – | – |
| B16 | 989 fold over isotype | – | – | – |
